Key:
Assay in all cases: cell-based or functional assay
[1] = molecular target: wild type FGFR2-IIIb expressed on FDCP-1 cells (human), P21802
[2] = molecular target: FGFR2-IIIb S252W expressed on FDCP-1 cells (human), P21802
[3] = molecular target: FGFR2-IIIb N550K expressed on FDCP-1 cells (human), P21802

IC50 of inhibition of cell proliferation (MTT assay) [1]: 0.3 nM | IC50 of inhibition of cell proliferation (MTT assay) [2]: 3 nM | IC50 of inhibition of cell proliferation (MTT assay) [3]: 8.1 nM
B1: antibody 4B9 (antibody)
heavy: EVQLQQSGTVLARPGASVKMSCKTSGYTFTSYWMHWVKQRPGQGLEWIGAIYPGNSDTDYSQKFKGKATLTAVTSATTAYMELSSLTNEDSAVYYCSKFDYWGQGTTLTVSSAKTTPPSVYPLAPGSAAQTNSMVTLGCLVKGYFPEPVTVTWNSGSLSSGVHTFPAVLQSDLYTLSSSVTVPSSTWPSQTVTCNVAHPASSTKVDKKIVPRDCGCKPCICTVPEVSSVFIFPPKPKDVLTITLTPKVTCVVVDISKDDPEVQFSWFVDDVEVHTAQTQPREEQFNSTFRSVSELPIMHQDWLNGKEFKCRVNSAAFPAPIEKTISKTKGRPKAPQVYTIPPPKEQMAKDKVSLTCMITDFFPEDITVEWQWNGQPAENYKNTQPIMDTDGSYFVYSKLNVQKSNWEAGNTFTCSVLHEGLHNHHTEKSLSHSPGK
light: QIVLTQSPALMSASPGEKVTMTCSASSSVNYMYWYQQKPRSSPKPWIYLTSNLASGVPARFSGRGSGTSYSLTISSMEAEDAATYYCQQWSSNPYTFGGGTKLEIKRADAAPTVSIFPPSSEQLTSGGASVVCFLNNFYPRDINVKWKIDGSERQNGVLNSWTDQDSKDSTYSMSSTLTLTKDEYERHNSYTCEATHKTSTSPIVKSFNRNEC

Source: US20130288305A1
